Laboratory results reported in patent US6653533, “Nucleic acids encoding proteins with pathogen resistance activity and plants transformed therewith” (Purdue Research Foundation).

B1: wild type gln2 PR-box 2x (dsDNA)
DNA 1: CATAAGAGCCGCCACTAAAATAAGACCGATCAAATAAGAGCCGCCAT
DNA 2: ATGGCGGCTCTTATTTGATCGGTCTTATTTTAGTGGCGGCTCTTATG
B2: mutated PR-box 2x (dsDNA)
DNA 1: CATAAGATCCTCCACTAAAATAAGACCGATCAAATAAGATCCTCCAT
DNA 2: ATGGAGGATCTTATTTGATCGGTCTTATTTTAGTGGAGGATCTTATG

Columns and labels:
[1] = biological target: T1, Pti1 (Lycopersicon esculentum, UniProt Q41328 Q41328:1-354); assay: EMSA; negative control protein; conditions: tags: GST fusion; label: 32P end label
T1 sequence: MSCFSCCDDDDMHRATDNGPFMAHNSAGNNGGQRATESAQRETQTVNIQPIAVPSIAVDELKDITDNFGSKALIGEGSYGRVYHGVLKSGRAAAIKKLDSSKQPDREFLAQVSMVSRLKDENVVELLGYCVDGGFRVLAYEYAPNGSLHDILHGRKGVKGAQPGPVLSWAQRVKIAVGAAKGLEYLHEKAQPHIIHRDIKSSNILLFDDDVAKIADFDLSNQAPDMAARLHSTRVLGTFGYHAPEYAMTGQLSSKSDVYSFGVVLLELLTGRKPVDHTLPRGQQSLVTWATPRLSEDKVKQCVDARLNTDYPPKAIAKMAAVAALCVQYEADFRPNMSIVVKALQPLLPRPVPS
Description: (§1) The wild type gln2 PR-box 2× ([…] […])(SEQ ID NO:17) and mutated PR-box 2× ([…] […]) (SEQ ID NO:18) were end-labeled by 32P as described by Ausubel, F. M., Brent, R., Kingston, R. E., Moore, D. D., Seidman, J. G., Smith, J. A., and Struhl, K. (1994). Current Protocols in Molecular Biology. (New York: Greene Publish Associates/John Wiley and Sons). Four fmol of probe was mixed with each of the purified GST-fusion proteins in a buffer containing 2 μg poly(dA-dT) (dA-dT), 25 mM Hepes (PH7.5), 40 mM KCl, 0.1 mM EDTA, 10% glycerol, and 1 mM DTT, incubated at room temperature for 15 minutes, and electrophoresed on a 4% polyacrylamide gel in 0.25×TBE buffer. Ohme-Takagi, M. and Shinshi, H. (1995). Ethylene-inducible DNA-binding proteins that interact with an ethylene-responsive element. Plant Cell 7, 173–182. The gel was subsequently dried and exposed to x-ray film. […] In contrast to GST-Pti5 and GST-Pti6, neither GST-Pti1 nor GST itself bound to the PR-box.

[2] = biological target: GST (UniProt P08515 P08515:1-218); assay: EMSA; negative control protein; conditions: tags: GST alone; label: 32P end label
Description: as §1

[3] = biological target: T2, Pti6 (Lycopersicon esculentum, UniProt O04682 SEQ:1-248); assay: EMSA; 4 fmol probe, poly(dA-dT), 25 mM Hepes pH 7.5, 40 mM KCl, room temperature; conditions: tags: GST fusion (pGEX), E. coli PR745; label: 32P end label
Description: as §1

[4] = biological target: T3, Pti5 (Lycopersicon esculentum, UniProt O04681 SEQ:1-161); assay: as above; conditions: tags: GST fusion (pGEX), E. coli PR745; label: 32P end label
Description: as §1

[5] = biological target: T2, Pti6; assay: EMSA; no binding detected; same buffer; conditions: tags: GST fusion (pGEX), E. coli PR745; label: 32P end label
Description: as §1

[6] = biological target: T3, Pti5; assay: EMSA; no binding detected; same buffer; conditions: tags: GST fusion (pGEX), E. coli PR745; label: 32P end label
Description: as §1

T3 sequence (O04681 other isoform, or with tags, fused parts or gaps): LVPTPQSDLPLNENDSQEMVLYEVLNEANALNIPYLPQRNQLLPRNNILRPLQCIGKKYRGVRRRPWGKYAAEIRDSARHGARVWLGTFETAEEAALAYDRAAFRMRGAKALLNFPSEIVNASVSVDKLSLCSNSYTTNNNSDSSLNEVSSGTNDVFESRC
T2 sequence (O04682 whole entry, the tested form may be a part): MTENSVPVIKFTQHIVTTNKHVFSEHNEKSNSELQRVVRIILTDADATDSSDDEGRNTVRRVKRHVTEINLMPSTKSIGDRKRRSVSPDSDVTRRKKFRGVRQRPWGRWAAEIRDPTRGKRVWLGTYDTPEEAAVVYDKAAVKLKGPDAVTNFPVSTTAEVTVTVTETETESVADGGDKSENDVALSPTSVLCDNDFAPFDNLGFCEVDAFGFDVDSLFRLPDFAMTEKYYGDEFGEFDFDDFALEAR
Sequence of GST (P08515 whole entry, one chain of several): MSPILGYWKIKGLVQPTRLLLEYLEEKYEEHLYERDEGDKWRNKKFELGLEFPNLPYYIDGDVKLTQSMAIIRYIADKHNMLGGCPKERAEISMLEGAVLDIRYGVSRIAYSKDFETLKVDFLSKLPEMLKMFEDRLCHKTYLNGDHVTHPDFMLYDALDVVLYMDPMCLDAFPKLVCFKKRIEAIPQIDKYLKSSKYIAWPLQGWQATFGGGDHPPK

| Binder | binding result [1] | binding result [2] | binding result [3] | binding result [4] | binding result [5] | binding result [6] |
| --- | --- | --- | --- | --- | --- | --- |
| B1 | no binding | no binding | binds | binds | – | – |
| B2 | – | – | – | – | no binding | no binding |
